Positions count from the first letter of the chain named. Names and notes keep the numbering of the source.
Key:
[1] = biological target: T1, PBS1^RCS2-HA (PBS1 in which the AvrPphB cleavage site GDKSHVS is replaced with the RIN4 cleavage site 2 VPKFGDW, fused to a C-terminal 3xHA epitope)
T1 chain: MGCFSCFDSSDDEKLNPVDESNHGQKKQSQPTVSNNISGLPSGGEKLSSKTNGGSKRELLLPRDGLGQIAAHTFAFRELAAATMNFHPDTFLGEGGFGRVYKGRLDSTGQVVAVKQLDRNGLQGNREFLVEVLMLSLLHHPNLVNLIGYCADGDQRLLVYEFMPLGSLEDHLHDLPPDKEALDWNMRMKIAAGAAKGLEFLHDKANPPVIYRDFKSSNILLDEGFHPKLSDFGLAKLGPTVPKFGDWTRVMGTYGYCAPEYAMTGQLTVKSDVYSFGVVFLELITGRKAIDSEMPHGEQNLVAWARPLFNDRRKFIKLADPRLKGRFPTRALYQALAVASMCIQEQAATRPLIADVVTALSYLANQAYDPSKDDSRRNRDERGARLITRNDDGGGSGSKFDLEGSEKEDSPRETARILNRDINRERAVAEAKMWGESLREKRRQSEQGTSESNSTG

[2] = biological target: T2, wild-type PBS1 (AvrPphB susceptible 1), Q9FE20
T2 chain: T1 chain with V241G, P242D, F244S, G245H, D246V, W247S

[3] = biological target: T3, PBS1^TCS-HA (PBS1 in which the seven amino acids flanking the AvrPphB cleavage site are replaced with a TEV cleavage site, fused to 3xHA)
T3 chain: T1 chain with V241E, P242N, K243L, F244Y, G245F, D246Q, W247G

B1: AvrRpt2 (Example 1 pTA7002 construct; also as delivered by P. syringae DC3000(avrRpt2)) (protein)
chain: MKIAPVAINHSPLSREVPSHAAPTQAKQTNLQSEAGDLDARKSSASSPETRALLATKTVLGRHKIEVPAFGGWFKKKSSKHETGGSSANADSSSVASDSTEKPLFRLTHVPYVSQGNERMGCWYACARMVGHSVEAGPRLGLPELYEGREGPAGLQDFSDVERFIHNEGLTRVDLPDNERFTHEELGALLYKHGPIIFGWKTPNDSWHMSVLTGVDKETSSITFHDPRQGPDLAMPLDYFNQRLAWQVPHAMLYR
- cleavage product by anti-HA immunoprecipitation and immunoblot, transgenic Arabidopsis line #5, 12 hours after inoculation [1]: a cleavage product of PBS1^RCS2 was detected in transgenic line #5 twelve hours after inoculation with DC3000(avrRpt2), but not with DC3000 lacking avrRpt2

B2: AvrRpt2 fused to 5xMyc (Example 5 construct) (protein)
chain: B1 chain
- cleavage by immunoblot, 6 hours post-induction [1]: AvrRpt2 cleaved PBS1^RCS2 at 6 hours post-induction
- cleavage by immunoblot, 24 hours post-induction [1]: At 24 hours post-induction, AvrRpt2-induced cleavage was increased

B3: C122A (protease-deficient mutant form of AvrRpt2) fused to 5xMyc (protein)
chain: B1 chain with C122A
- cleavage by immunoblot, 24 hours post-induction [1]: even C122A induced small amounts of cleavage

B4: TEV protease (NIa protease of Tobacco Etch Virus) fused to 5xMyc (protein)
chain: GESLFKGPRDYNPISSTICHLTNESDGHTTSLYGIGFGPFIITNKHLFRRNNGTLLVQSLHGVFKVKNTTTLQQHLIDGRDMIIIRMPKDFPPFPQKLKFREPQREERICLVTTNFQTKSMSSMVSDTSCTFPSSDGIFWKHWIQTKDGQCGSPLVSTRDGFIVGIHSASNFTNTNNYFTSVPKNFMELLTNQEAQQWVSGWRLNADSVLWGGHKVFMSKPEEPFQPVKEATQLMNELVYSQ
- cleavage by immunoblot [2]: TEV protease did not cleave wild-type PBS1
- cleavage by immunoblot, 6 hours post induction [3]: TEV protease cleaved PBS1^TCS 6 hours post induction

Source: patent US20150247163
